# B1: CXCL11 (unlabeled recombinant chemokine) (ligand, human, UniProt O14625 22-94, looked up)
# chain: FPMFKRGRCLCIGPGVKAVKVADIEKASIMYPSNNCDKIEVIITLKENKGQRCLNPKSKQARLIIKKVERKNF
# notes: chemokine CXCL11 (I-TAC); called human CXCL11 in the text on scavenging by MEFs; also called I-TAC; unlabeled CXCL11; source: recombinant; gift from Amanda Nevins and Brian Volkman or from PeproTech Inc
# Columns and labels:
# Experiment in all cases: radioligand binding; HEK293 cells expressing ACKR3-YFP or mutants, pretreated 5 min at 37 °C with 100 μM phenylarsine oxide; 50 pM 125I-CXCL12 tracer in 50 mM HEPES pH 7.4, 5 mM MgCl2, 1 mM CaCl2, 0.2% BSA, with or without unlabeled CXCL12 or CXCL11, 30 min at 37 °C; bound label counted in a γ counter; IC50 taken as proxy for ligand affinity
# Conditions in all cases: one partner purified
# ACKR3 R142A-YFP = target: T1, ACKR3 R142A-YFP (UniProt P25106 1-362, R142A)
# T1 construct: ACKR3 (CXCR7) with R142A (Ballesteros-Weinstein 3.50), made by PCR in ACKR3-YFP; also called R142^3.50A; ACKR3 R142^3.50A; source: HEK293, transiently transfected (polyethyleneimine), on or in cells; not shown: YFP, C-terminal, kept
# ACKR3 D90N-YFP = target: T2, ACKR3 D90N-YFP (UniProt P25106 1-362, D90N)
# T2 construct: ACKR3 (CXCR7) with D90N (Ballesteros-Weinstein 2.50), made by PCR in ACKR3-YFP; also called D90^2.50N; source: HEK293, transiently transfected (polyethyleneimine), on or in cells; not shown: YFP, C-terminal, kept
# ACKR3 Y315A-YFP = target: T3, ACKR3 Y315A-YFP (UniProt P25106 1-362, Y315A)
# T3 construct: ACKR3 (CXCR7) with Y315A (Ballesteros-Weinstein 7.53), made by PCR in ACKR3-YFP; also called Y315^7.53A; source: HEK293, transiently transfected (polyethyleneimine), on or in cells; not shown: YFP, C-terminal, kept
# ACKR3 N127K-YFP = target: T4, ACKR3 N127K-YFP (UniProt P25106 1-362, N127K)
# T4 construct: ACKR3 (CXCR7) with N127K (Ballesteros-Weinstein 3.35), made by PCR in ACKR3-YFP; also called N127^3.35K; source: HEK293, transiently transfected (polyethyleneimine), on or in cells; not shown: YFP, C-terminal, kept
# ACKR3 D141N-YFP = target: T5, ACKR3 D141N-YFP (UniProt P25106 1-362, D141N)
# T5 construct: ACKR3 (CXCR7) with D141N (Ballesteros-Weinstein 3.49), made by PCR in ACKR3-YFP; also called D141^3.49N; source: HEK293, transiently transfected (polyethyleneimine), on or in cells; not shown: YFP, C-terminal, kept
# ACKR3 Y143A-YFP = target: T6, ACKR3 Y143A-YFP (UniProt P25106 1-362, Y143A)
# T6 construct: ACKR3 (CXCR7) with Y143A (Ballesteros-Weinstein 3.51), made by PCR in ACKR3-YFP; also called Y143^3.51A; source: HEK293, transiently transfected (polyethyleneimine), on or in cells; not shown: YFP, C-terminal, kept
# ACKR3 N127D-YFP = target: T7, ACKR3 N127D-YFP (UniProt P25106 1-362, N127D)
# T7 construct: ACKR3 (CXCR7) with N127D (Ballesteros-Weinstein 3.35), made by PCR in ACKR3-YFP; also called N127^3.35D; source: HEK293, transiently transfected (polyethyleneimine), on or in cells; not shown: YFP, C-terminal, kept
# [1] = target: T8, ACKR3-YFP (wildtype ACKR3 fused C-terminally to YFP) (UniProt P25106 1-362)
# T8 construct: atypical chemokine receptor 3 (ACKR3, also known as CXCR7); also called CXCR7; receptor-YFP fusion; source: HEK293, transiently transfected (polyethyleneimine), on or in cells; not shown: YFP, C-terminal, kept
# ACKR3 N127S-YFP = target: T9, ACKR3 N127S-YFP (UniProt P25106 1-362, N127S)
# T9 construct: ACKR3 (CXCR7) with N127S (Ballesteros-Weinstein 3.35), made by PCR in ACKR3-YFP; also called N127^3.35S; source: HEK293, transiently transfected (polyethyleneimine), on or in cells; not shown: YFP, C-terminal, kept
# T9 sequence (P25106 whole entry N127S): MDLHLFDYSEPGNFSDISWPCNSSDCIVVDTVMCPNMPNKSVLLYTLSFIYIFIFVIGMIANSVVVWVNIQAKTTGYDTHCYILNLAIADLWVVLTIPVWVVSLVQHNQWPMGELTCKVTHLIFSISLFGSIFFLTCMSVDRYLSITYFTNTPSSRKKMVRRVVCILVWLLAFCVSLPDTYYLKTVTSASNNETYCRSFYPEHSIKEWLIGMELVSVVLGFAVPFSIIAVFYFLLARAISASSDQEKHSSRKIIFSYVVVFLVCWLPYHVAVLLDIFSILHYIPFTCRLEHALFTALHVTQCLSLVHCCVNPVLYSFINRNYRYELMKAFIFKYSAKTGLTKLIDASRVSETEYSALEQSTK
# T6 sequence (P25106 whole entry Y143A): as the sequence (P25106 whole entry N127S) above, with S127N, Y143A counted along it
# T4 sequence (P25106 whole entry N127K): as the sequence (P25106 whole entry N127S) above, with S127K counted along it
# T3 sequence (P25106 whole entry Y315A): as the sequence (P25106 whole entry N127S) above, with S127N, Y315A counted along it
# T5 sequence (P25106 whole entry D141N): as the sequence (P25106 whole entry N127S) above, with S127N, D141N counted along it
# T1 sequence (P25106 whole entry R142A): as the sequence (P25106 whole entry N127S) above, with S127N, R142A counted along it
# T8 sequence (P25106 whole entry, the tested form may be a part): as the sequence (P25106 whole entry N127S) above, with S127N counted along it
# T2 sequence (P25106 whole entry D90N): as the sequence (P25106 whole entry N127S) above, with D90N, S127N counted along it
# T7 sequence (P25106 whole entry N127D): as the sequence (P25106 whole entry N127S) above, with S127D counted along it
binder,measurement,setting,value
B1,IC50,ACKR3 R142A-YFP,44.8 nM
same,Log IC50,ACKR3 R142A-YFP,-7.4
same,IC50,ACKR3 D90N-YFP,35.9 nM
same,Log IC50,ACKR3 D90N-YFP,-7.5
same,IC50,ACKR3 Y315A-YFP,19.1 nM
same,Log IC50,ACKR3 Y315A-YFP,-7.7
same,IC50,ACKR3 N127K-YFP,11 nM
same,Log IC50,ACKR3 N127K-YFP,-7.9
same,IC50,ACKR3 D141N-YFP,4.8 nM
same,Log IC50,ACKR3 D141N-YFP,-8.3
same,IC50,ACKR3 Y143A-YFP,15.4 nM
same,Log IC50,ACKR3 Y143A-YFP,-7.8
same,IC50,ACKR3 N127D-YFP,6.6 nM
same,Log IC50,ACKR3 N127D-YFP,-8
same,IC50,[1],39.1 nM
same,Log IC50,[1],-7.4
same,IC50,ACKR3 N127S-YFP,3.7 nM
same,Log IC50,ACKR3 N127S-YFP,-8.5
